Experimental data published in US20240010724A1 (Amgen, published 2024).
Numbering of substitutions follows the chain as printed.

How the values were obtained:
Assay in all cases: flow cytometry, transfected 293T cells
[1] = biological target: T1, huCDH19(44-141)::muCDH19(140-770) (human/mouse chimera)
T1 construct: also called Hu EC1

[2] = biological target: T2, huCDH19(44-249)::muCDH19(248-770) (human/mouse chimera)
T2 construct: also called Hu EC1-2

[3] = biological target: T3, muCDH19(44-139)::huCDH19(142-249):muCDH19(248-770) (human/mouse chimera)
T3 construct: also called Hu EC2
T3 chain: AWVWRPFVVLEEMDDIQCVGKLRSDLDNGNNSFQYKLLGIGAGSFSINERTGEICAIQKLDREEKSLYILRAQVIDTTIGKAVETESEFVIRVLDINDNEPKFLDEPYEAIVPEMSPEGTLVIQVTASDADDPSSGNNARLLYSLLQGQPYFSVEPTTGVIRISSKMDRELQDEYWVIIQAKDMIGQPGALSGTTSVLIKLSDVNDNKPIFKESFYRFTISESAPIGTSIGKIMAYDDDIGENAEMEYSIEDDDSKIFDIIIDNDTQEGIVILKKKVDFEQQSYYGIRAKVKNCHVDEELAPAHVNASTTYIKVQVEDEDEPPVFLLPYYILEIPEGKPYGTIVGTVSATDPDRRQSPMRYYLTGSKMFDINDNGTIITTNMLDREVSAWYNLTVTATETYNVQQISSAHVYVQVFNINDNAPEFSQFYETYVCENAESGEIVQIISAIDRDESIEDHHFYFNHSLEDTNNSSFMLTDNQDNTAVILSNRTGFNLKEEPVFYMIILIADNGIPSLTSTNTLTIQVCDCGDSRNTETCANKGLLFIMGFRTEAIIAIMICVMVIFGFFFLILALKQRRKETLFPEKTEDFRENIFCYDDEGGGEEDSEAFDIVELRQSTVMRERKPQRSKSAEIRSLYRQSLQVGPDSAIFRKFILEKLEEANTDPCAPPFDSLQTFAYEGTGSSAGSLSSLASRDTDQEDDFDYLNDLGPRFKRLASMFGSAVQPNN

[4] = biological target: T4, muCDH19(44-139)::huCDH19(142-364)::muCDH19(363-770) (human/mouse chimera)
T4 construct: also called Hu EC2-3

[5] = biological target: T5, muCDH19(44-247)::huCDH19(250-364)::muCDH19(363-770) (human/mouse chimera)
T5 construct: also called Hu EC3

[6] = biological target: T6, muCDH19(44-362)::huCDH19(365-772) (human/mouse chimera)
T6 construct: also called Hu EC4-5
T6 chain: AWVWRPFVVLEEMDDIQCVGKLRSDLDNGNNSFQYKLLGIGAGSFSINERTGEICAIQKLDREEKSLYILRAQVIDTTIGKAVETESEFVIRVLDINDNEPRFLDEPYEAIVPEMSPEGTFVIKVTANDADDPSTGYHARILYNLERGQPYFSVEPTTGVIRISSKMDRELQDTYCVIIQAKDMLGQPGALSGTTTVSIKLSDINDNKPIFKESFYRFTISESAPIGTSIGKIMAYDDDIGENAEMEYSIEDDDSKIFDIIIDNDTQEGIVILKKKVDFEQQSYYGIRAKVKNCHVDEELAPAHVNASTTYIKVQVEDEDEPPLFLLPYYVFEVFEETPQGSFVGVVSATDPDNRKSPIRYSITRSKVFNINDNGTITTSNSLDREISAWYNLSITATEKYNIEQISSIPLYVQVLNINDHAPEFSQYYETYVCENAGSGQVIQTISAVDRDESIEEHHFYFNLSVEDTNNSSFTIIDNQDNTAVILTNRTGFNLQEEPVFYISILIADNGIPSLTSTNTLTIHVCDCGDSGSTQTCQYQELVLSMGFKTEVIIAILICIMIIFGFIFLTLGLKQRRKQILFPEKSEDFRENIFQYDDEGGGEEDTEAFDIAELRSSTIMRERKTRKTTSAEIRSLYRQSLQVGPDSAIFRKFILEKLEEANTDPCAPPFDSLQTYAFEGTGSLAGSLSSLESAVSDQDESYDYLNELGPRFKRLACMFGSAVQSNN

[7] = biological target: T7, muCDH19(44-461)::huCDH19(464-772) (human/mouse chimera)
T7 construct: also called Hu EC5
T7 chain: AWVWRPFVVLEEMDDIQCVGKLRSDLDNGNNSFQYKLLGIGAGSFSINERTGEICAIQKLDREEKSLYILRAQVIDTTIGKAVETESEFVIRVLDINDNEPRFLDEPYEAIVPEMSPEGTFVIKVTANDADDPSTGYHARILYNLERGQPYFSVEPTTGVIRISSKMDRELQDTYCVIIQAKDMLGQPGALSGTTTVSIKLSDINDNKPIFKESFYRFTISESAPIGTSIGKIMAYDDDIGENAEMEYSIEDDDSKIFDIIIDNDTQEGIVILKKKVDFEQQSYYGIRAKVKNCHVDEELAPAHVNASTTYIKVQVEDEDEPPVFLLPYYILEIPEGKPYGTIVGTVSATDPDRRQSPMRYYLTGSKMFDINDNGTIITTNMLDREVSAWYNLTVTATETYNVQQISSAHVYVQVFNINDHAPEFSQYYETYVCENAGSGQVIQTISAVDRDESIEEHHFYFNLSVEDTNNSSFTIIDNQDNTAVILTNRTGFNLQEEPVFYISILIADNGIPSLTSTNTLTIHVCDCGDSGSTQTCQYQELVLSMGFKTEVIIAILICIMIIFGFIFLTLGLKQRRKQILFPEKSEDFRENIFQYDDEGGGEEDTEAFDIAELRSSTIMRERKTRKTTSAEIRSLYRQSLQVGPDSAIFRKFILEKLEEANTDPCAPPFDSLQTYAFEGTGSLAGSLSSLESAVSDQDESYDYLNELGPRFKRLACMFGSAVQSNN

huCDH19(44-772) = biological target: T8, huCDH19(44-772) (human, UniProt Q9H159 44-772)
T8 construct: also called Hu EC1-5

muCDH19(44-770) = biological target: T9, muCDH19(44-770) (mouse)
T9 construct: also called Mu EC1-5
T9 chain: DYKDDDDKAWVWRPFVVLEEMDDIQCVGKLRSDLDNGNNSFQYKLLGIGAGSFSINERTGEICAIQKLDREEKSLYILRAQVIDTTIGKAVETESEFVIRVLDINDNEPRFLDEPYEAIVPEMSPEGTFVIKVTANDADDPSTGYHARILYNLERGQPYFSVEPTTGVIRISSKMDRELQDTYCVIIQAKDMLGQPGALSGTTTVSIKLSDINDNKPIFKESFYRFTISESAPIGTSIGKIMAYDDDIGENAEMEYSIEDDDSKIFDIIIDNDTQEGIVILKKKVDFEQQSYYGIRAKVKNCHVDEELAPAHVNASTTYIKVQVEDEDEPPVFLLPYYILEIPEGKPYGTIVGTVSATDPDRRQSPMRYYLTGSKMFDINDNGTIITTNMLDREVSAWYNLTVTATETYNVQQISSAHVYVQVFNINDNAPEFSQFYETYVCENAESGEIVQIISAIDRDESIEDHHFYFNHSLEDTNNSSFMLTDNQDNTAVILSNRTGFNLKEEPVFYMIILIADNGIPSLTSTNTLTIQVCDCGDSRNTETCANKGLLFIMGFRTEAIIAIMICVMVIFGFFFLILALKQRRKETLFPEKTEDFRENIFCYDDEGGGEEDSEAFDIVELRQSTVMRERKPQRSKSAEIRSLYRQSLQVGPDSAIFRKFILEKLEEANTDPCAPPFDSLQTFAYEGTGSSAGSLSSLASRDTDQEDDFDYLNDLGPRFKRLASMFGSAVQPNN

Measured: binding result

B1: anti-CDH19 antibody 14039 (antibody, human IgG1, lambda, V domains shown)
VH: QVQLVESGGGVVQPGGSLRLSCAASGFTFSSYGMHWVRQAPGKGLEWVAFIWYEGSNKYYAESVKDRFTISRDNSKNTLYLQMNSLRAEDTAVYYCARRAGIIGTIGYYYGMDVWGQGTTVTVSS
VL: SYELTQPPSVSVSPGQTASITCSGDRLGEKYTSWYQQRPGQSPLLVIYQDTKRPSGIPERFSGSNSGNTATLTISGTQAMDEADYYCQAWESSTVVFGGGTKLTVLG
not listed: huCDH19(44-772) | muCDH19(44-770)
binds: all other assays above

B2: anti-CDH19 antibody 14304 (antibody, V domains shown)
VH: B1 VH with E54D, E62D, N84K
VL: B1 VL with T32V, R38K, L44I, T51N, R53W, E91D
binds: all assays above

B3: anti-CDH19 antibody 13589 (clone 4A9) (antibody, human IgG1, lambda, V domains shown)
VH: QVQLQESGPGLVKPSETLSLTCTVSGGSISGYYWSWIRQPPGKGLEWFAYFSYSGSTNYNPSLKSRVTLSVDTSKNQFSLKLSSVTAADTAVYYCARNWAFHFDFWGQGTLVTVSS
VL: QSVLTQPPSVSGAPGQRVTISCTGSSSNIGTGYAVHWYQQFPGTAPKLLIYGNNNRPSGVPDRFSGSKSGTSASLAITGLQAEDEADYYCQSYDSRLSGWVFGGGTKLTVLG
notes: fully human XenoMouse monoclonal antibody; bin 1; also called Alexa647-labelled 4A9
binds: [1] | [2]

B4: anti-CDH19 antibody 13880 (clone 25F8) (antibody, human IgG1, lambda, V domains shown)
VH: QVQLVQSGAEVKKPGASVKVSCKASGYTFTSYYIHWVRQAPGQGLEWMGIINPSGGSTRYAQKFQGRVTMTRDTSTSTVFMELSSLRSEDTAVYYCARGGIQLWLHFDYWGQGTLVTVSS
VL: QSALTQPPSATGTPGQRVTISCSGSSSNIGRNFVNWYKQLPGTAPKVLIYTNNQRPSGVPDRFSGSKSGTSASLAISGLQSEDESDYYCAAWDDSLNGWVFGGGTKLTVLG
notes: fully human XenoMouse monoclonal antibody; bin 2
binds: [1] | [2]

B5: anti-CDH19 antibody 13882 (clone 26D1) (antibody, human IgG1, lambda, V domains shown)
VH: B4 VH with G26R, I34M, H35S, N52H, S57D, R59T, R72G, F80Y, Q102K
VL: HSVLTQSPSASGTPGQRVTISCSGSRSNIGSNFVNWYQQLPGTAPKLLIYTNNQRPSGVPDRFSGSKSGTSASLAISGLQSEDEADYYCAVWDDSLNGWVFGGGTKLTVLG
notes: as for B4
binds: [1] | [2]

B6: anti-CDH19 antibody 13590 (clone 4B10) (antibody, V domains shown)
VH: QVQLVESGGGVVQPGRSLRLSCAASGFTFSSYDMHWVRQAPGKGLEWVAVISYDGTNEYYADSVKGRFTISRDTSKNTLYLQMNSLRAEDTAVYYCARERYFDWSFDYWGQGTLVSVSS
VL: EIVLTQSPGTLSLSPGERATLSCRASQSVSNTYLAWYHQRPGQAPRLLIYGASSRATGIPDRFSGSGSGTDFALTISSLEPEDFAVYYCQQYSNSWTFGQGTKVEIKR
notes: fully human XenoMouse monoclonal antibody; bin 4
binds: [4] | [5]
